Results on 1 molecule are retold here after paper PMC3196492, “APOE Genotype-Function Relationship: Evidence of −491 A/T Promoter Polymorphism Modifying Transcription Control but Not Type 2 Diabetes Risk”.

The series concerns the target ATF4 (human (ORF from 293 cells), UniProt P18848 1-351). The series can be described thus: EMSA; 1.2 uM ATF4, 3 nM probe; excess unlabeled probe competes completely; supershift with anti-ATF4 at 0.7 uM ATF4; 20 ul EMSA, 3 nM DIG-labeled probe, Roche kit instructions; buffer, salt, pH and temperature not stated. The settings on record: protein: recombinant; tags: His-tag; chain copies: 2; label: DIG; blunt.

Chain of ATF4 (P18848 whole entry): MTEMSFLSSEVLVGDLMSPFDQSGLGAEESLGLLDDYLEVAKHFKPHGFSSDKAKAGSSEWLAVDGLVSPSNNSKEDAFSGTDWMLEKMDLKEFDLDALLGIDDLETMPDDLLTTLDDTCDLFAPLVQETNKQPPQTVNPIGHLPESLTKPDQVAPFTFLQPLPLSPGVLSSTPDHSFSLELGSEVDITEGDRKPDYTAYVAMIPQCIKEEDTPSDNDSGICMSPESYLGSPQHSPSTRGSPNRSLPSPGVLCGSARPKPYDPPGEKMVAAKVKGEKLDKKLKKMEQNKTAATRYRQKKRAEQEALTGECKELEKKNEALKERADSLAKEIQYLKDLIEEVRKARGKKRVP

B1: APOE promoter -491A probe (-521 to -461) (dsDNA)
DNA 1: GTTTCACCATGTTGGCCAGGCTGGTCTCAAACTCCTGACCTTAAGTGATTCGCCCACTGTG
DNA 2: CACAGTGGGCGAATCACTTAAGGTCAGGAGTTTGAGACCAGCCTGGCCAACATGGTGAAAC
Consider B1, for which the binding result is given as “binds”.
